Target: T1, SARS-CoV-2 nsp12 (RNA-dependent RNA polymerase with N-terminal NiRAN domain) (SARS-CoV-2, UniProt P0DTD1)
T1 construct: also called WT nsp12; RdRp
Test: cryo-EM structure
Settings: both partners purified

B1: SARS-CoV-2 nsp9 (native N terminus) (natural protein)
chain: NNELSPVALRQMSCAAGTTQTACTDDNALAYYNTTKGGRFVLALLSDLQDLKWARFPKSDGTGTIYTELEPPCRFVTDTPKGPKVKYLYFIKGLNNLNRGMVLGSLAATVRLQ
notes: also called native nsp9
binding result: binds
